Here are results for one molecule from patent publication US20070253950A1 (Pfizer, published 2007).

By Kd is commonly meant a measure of binding affinity in units of concentration. A lower Kd goes with tighter binding. One may read the koff as a measure of how fast the partners let go of each other. Low values mean a long-lived complex, high ones a short-lived complex. As usually defined, the kon is a measure of how fast the partners come together. Read a high kon as faster complex formation.

One experiment addresses rhB7-H1-Fc (human, UniProt Q9NZQ7 19-239). In words: direct binding ELISA, receptor coated 1 µg/ml, antibody 20 µg/ml. On the procedure: (§1) These receptors were chosen because they are cell-surface expressed, like RAGE, and their interaction with ligand is similarly dependent on charge. Tested receptors were rhVCAM-1, rhICAM-1-Fc, rhTLR4 (C-terminal His tag), rhNCAM-1, rhB7-H1-Fc mLox1-Fc, hLox1-Fc and hRAGE-Fc (as a positive control). ELISA plates were coated overnight with 1 μg/ml of the listed receptor proteins.

The next experiment concerns the target rhNCAM-1 (human, UniProt P13591-1 20-603, limits assumed). Described as above. On the procedure:
as §1

A further experiment has as its target hLox1-Fc (human, UniProt P78380 61-273). The description is as above. Here is the method: as §1
The next experiment concerns the target T1, rhVCAM-1 (human, UniProt P19320 25-698).
T1 sequence (looked up): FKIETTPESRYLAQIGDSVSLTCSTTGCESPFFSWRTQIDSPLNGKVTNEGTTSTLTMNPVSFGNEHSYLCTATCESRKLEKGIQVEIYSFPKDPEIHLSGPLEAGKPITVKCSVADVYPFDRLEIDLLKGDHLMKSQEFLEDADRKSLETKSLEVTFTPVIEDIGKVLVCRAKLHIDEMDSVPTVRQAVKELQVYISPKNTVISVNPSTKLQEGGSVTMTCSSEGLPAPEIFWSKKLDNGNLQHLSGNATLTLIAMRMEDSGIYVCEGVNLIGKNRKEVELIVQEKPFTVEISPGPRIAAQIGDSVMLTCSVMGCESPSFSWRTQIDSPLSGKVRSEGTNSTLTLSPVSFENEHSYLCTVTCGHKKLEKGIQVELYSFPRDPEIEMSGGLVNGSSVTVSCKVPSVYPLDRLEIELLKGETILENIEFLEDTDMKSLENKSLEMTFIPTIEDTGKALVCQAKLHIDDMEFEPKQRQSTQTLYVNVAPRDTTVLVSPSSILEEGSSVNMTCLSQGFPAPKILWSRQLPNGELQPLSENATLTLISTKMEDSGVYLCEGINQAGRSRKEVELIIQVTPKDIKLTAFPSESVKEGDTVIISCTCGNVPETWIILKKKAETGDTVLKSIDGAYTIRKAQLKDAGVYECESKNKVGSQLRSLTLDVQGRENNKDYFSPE
The description is as above. On the procedure: as §1

The target in a further experiment is mLox1-Fc (mouse, UniProt Q9EQ09 60-363, limits assumed). The experiment is described as above. Here is the method: as §1
mLox1-Fc, sequence (Q9EQ09 60-363 limits assumed): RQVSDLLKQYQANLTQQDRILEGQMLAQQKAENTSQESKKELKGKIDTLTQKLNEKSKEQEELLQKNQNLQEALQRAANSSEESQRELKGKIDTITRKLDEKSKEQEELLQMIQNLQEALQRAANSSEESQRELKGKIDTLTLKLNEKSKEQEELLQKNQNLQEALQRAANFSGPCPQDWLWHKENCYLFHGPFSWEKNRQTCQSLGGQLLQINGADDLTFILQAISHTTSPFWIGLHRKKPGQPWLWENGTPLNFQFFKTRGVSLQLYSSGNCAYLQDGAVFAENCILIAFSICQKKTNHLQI
Experiment [1] deals with T2, human RAGE-Fc fusion protein (human, UniProt Q15109 23-344).
T2 construct: amino acids 1-344 of human RAGE appended to the Fc domain of human IgG; also called hRAGE-Fc; huRAGE-Fc
Nature of the experiment: ligand competition ELISA, panel 'Blocks hRAGE-Fc interaction with S100-B'; blocked ligand S100-B. A general note: An ELISA detects its analyte on a solid surface through an enzyme-linked reagent.

Experiment [2] deals with T2, human RAGE-Fc fusion protein. In words: antibody competition ELISA on hRAGE-Fc; competitor: biotinylated XT-M4. Here is the method:
ELISA plates were coated overnight with 1 ug/ml human RAGE-Fc. […] Briefly, plates were coated overnight with 1 ug/ml human RAGE-Fc.

Experiment [3] has as its target T3, human RAGE-strep tag fusion protein (human, UniProt Q15109 23-344).
T3 construct: monomeric soluble human RAGE; also called hRAGE-SA; soluble human streptavidin-tagged RAGE
Nature of the experiment: BIACORE capture assay: hRAGE-SA over antibody captured on anti-human Fc; 1:1 Langmuir global fit; FC3. Here is the method:
(§2) The assays were performed by coating anti-human Fc antibodies onto a CM5 BIA chip with 5000 RU (pH 5.0, 7 min.) in flow cells 1-4. Each antibody was captured by flowing at 2.0 μg/ml over the anti-Fc antibodies in flow cells 2-4 (flow cell 1 was used as a reference).
Background: SPR reads the build-up and loss of mass on a sensor chip optically.

Experiment [4] addresses T4, murine RAGE-strep tag fusion protein (murine, UniProt Q62151 23-343).
T4 construct: also called mRAGE-strep; mRAGE-SA
T4 chain: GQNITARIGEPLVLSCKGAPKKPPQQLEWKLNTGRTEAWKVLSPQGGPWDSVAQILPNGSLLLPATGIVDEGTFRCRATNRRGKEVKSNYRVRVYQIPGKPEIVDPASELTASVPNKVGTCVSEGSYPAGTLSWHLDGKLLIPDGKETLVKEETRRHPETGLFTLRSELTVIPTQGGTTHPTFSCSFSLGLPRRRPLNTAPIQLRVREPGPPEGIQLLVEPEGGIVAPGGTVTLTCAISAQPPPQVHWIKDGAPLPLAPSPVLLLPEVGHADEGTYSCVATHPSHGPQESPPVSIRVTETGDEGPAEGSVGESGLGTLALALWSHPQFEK
Nature of the experiment: BIACORE capture assay: mRAGE-SA (SA-Mu RAGE) over antibody captured on anti-human Fc; 1:1 Langmuir global fit; FC2. On the procedure:
as §2

The target of experiment [5] is T2, human RAGE-Fc fusion protein. Nature of the experiment: ligand competition ELISA, panel 'Blocks hRAGE-Fc interaction with A-beta'; blocked ligand amyloid beta 1-42 peptide.
Experiment [6] has as its target T3, human RAGE-strep tag fusion protein. In words: BIACORE capture assay: hRAGE-SA over antibody captured on anti-human Fc; 1:1 Langmuir global fit; FC4. On the procedure:
as §2

rhB7-H1-Fc, sequence (Q9NZQ7 19-239 limits assumed): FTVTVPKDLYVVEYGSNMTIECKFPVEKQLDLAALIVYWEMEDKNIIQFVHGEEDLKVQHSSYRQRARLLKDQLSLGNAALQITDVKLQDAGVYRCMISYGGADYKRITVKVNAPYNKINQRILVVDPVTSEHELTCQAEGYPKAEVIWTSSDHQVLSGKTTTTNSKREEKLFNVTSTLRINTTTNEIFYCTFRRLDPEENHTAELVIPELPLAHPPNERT
rhNCAM-1, sequence (P13591 other isoform, or with tags, fused parts or gaps limits assumed): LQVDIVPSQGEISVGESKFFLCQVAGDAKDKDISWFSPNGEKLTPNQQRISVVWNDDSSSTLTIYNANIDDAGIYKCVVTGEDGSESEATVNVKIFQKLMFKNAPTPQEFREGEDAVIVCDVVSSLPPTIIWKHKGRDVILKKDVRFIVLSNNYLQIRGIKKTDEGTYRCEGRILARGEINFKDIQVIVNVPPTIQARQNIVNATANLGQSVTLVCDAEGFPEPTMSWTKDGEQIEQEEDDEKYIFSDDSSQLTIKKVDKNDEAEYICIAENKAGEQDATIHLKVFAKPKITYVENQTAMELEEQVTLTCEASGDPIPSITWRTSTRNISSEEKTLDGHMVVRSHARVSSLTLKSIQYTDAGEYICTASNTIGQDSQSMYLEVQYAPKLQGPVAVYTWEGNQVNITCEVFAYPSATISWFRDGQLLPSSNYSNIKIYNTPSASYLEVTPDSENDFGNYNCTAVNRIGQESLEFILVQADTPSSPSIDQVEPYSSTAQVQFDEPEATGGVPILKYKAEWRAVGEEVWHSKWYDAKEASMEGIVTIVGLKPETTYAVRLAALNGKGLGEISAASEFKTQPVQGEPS

B1: chimeric XT-M4 (antibody, V domains shown)
VH: EVQLVESGGGLVQPGRSLKLSCVVSGFTFNNYWMTWIRQTPGKGLEWVASINNSGDNTYYPDSVKDRFTISRDNAKSTLYLQMNSLRSEDTATYYCTRGGDITTGFDYWGQGVMVTVSS
VL: DIQMTQSPSSMSVSLGDTITITCRASQDVGIYVNWFQQKPGKSPRRMIYRATNLADGVPSRFSGSRSGSIYSLTISSLESEDVADYHCLEFDEHPLTFGSGTKVEIK
modifications: N-linked oligosaccharide at Asn52 (CDR2) on part of the heavy chains
notes: rat XT-M4 variable regions fused to human kappa light chain and human IgG1 heavy chain constant regions; L234A and G237A in the human IgG1 Fc region; also called chimeric antibody XT-M4; XT-M4-A-1
Regarding B1, the OD450 with rhB7-H1-Fc stood at 0.003; with rhNCAM-1, 0.006; with hLox1-Fc, 0.017; in the experiment with rhVCAM-1, 0.004; with mLox1-Fc, 0.01. In addition, the “IC50 (read off the curve)” value is approximately 0.08 µg/mL in experiment [1], approximately 0.4 µg/mL in [2] and approximately 0.1 µg/mL in experiment [5]. Further, the values for the Kd in experiment [3], in [4] and in experiment [6] were 7.33 nM, 1.9 nM and 8.2 nM, respectively. The koff in experiment [3] was found to be 0.0271 s⁻¹; in experiment [4], 0.0042 s⁻¹; in experiment [6], 0.05 s⁻¹. In addition, the kon is 3.7e+06 M⁻¹ s⁻¹ in [3], 2.2e+06 M⁻¹ s⁻¹ in experiment [4] and 6.1e+06 M⁻¹ s⁻¹ in experiment [6].
